Results as given in publication doi:10.1101/2025.06.12.659315, “Structural Basis for Cas9-Directed Spacer Acquisition in Type II-A CRISPR-Cas Systems” (bioRxiv, 2025).

T1: Enterococcus faecalis Cas1-Cas2 integrase complex (Cas1_(4)-Cas2_(2) hexamer) (Enterococcus faecalis, UniProt A0A3N3GDE4 1-288; A0A3N3FLR9 1-109)
T1 construct: Cas1 of the Enterococcus faecalis type II-A CRISPR-Cas system, full length; as the chain of m3; Cas2 of the Enterococcus faecalis type II-A CRISPR-Cas system, full length; as the chain of m4; Complex formed beforehand; used as one partner in the gel filtration and DNA cleavage assays; also called Cas1-Cas2 hexamer; Cas1-Cas2 complex; source: E. coli BL21 Star (DE3); tag-cleaved Cas1 and Cas2 …
T1 sequence (looked up) 1: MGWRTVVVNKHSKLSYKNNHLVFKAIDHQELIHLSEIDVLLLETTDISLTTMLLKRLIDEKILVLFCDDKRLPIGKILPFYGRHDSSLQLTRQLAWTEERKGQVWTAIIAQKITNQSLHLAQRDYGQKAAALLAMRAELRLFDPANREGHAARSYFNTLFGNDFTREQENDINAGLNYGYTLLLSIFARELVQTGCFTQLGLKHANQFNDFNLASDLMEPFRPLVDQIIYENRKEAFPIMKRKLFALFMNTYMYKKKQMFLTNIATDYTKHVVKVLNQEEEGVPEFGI
T1 sequence (looked up) 2: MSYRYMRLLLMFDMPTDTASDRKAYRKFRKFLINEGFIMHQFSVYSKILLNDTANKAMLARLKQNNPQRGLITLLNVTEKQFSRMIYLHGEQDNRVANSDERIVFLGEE

B1: Enterococcus faecalis Cas1 (enzyme, UniProt A0A3N3GDE4 1-288, looked up)
chain: MGWRTVVVNKHSKLSYKNNHLVFKAIDHQELIHLSEIDVLLLETTDISLTTMLLKRLIDEKILVLFCDDKRLPIGKILPFYGRHDSSLQLTRQLAWTEERKGQVWTAIIAQKITNQSLHLAQRDYGQKAAALLAMRAELRLFDPANREGHAARSYFNTLFGNDFTREQENDINAGLNYGYTLLLSIFARELVQTGCFTQLGLKHANQFNDFNLASDLMEPFRPLVDQIIYENRKEAFPIMKRKLFALFMNTYMYKKKQMFLTNIATDYTKHVVKVLNQEEEGVPEFGI
notes: Cas1 of the Enterococcus faecalis type II-A CRISPR-Cas system, full-length gene amplified from E. faecalis genomic DNA; Cas1 was purified together with Cas2 (mixed 2:1) before use; also called EfaCas1; Cas1 dimer; source: E. coli BL21 Star (DE3), purified (Ni-NTA, SUMO protease cleavage, Superdex 200 SEC with Cas2)
B2: Enterococcus faecalis Cas2 (natural protein, UniProt A0A3N3FLR9 1-109, looked up)
chain: MSYRYMRLLLMFDMPTDTASDRKAYRKFRKFLINEGFIMHQFSVYSKILLNDTANKAMLARLKQNNPQRGLITLLNVTEKQFSRMIYLHGEQDNRVANSDERIVFLGEE
notes: Cas2 of the Enterococcus faecalis type II-A CRISPR-Cas system, full-length gene amplified from E. faecalis genomic DNA; Cas2 was purified together with Cas1 (Cas1:Cas2 mixed 2:1) before use; also called EfaCas2; Cas2 dimer; source: E. coli BL21 Star (DE3), purified (Ni-NTA, SUMO protease cleavage, Superdex 200 SEC with Cas1)
B3: Enterococcus faecalis Csn2 (natural protein, UniProt C7UDU4 1-219, looked up)
chain: MRVNFSLLEEPIEIEKATFLTIKDVQSFAHLVKLIYQYDGENELKLFDAQQKGLKPTELFVVTDILGYDVNSAATLKLIYGDLEAQLNDKPEVKSMIEKLTGTISQLIGYELLEHEMDLEEDGIIVQELFKALGIKIETTSDTIFEKVMEITQVHRYLSKKKLLIFINACTYLTEDEVQQVVEYISLNNVDVLFLEQRVVQNRFQYILDENFYLSYEKA
notes: Csn2 of the Enterococcus faecalis type II-A CRISPR-Cas system, full-length gene amplified from E. faecalis genomic DNA; Homotetramer ring with a central channel for dsDNA; also called EfaCsn2; Csn2 tetramer; source: E. coli BL21 Star (DE3), purified (Ni-NTA, TEV cleavage, Superdex 200 SEC); not shown: His6, N-terminal, cleaved; MBP, N-terminal, cleaved

Tests used:
[1] = target: the molecule itself; test: cryo-EM structure; preassembled Cas9/RNA-Csn2-Cas1-Cas2 supercomplex incubated with a 59-bp PAM-containing dsDNA at 4 °C for 30 min; Cas9-containing prespacer catching complex, State I 2.96 Å and State II 3.01 Å
[2] = target: the molecule itself; test: cryo-EM structure; apo-state Cas9/RNA-Csn2-Cas1-Cas2 supercomplex, assembled from purified proteins and purified by SEC in 20 mM HEPES pH 7.5, 250 mM NaCl; 3.9 Å
[3] = target: T1, Enterococcus faecalis Cas1-Cas2 …; test: SEC; analytical SEC, Superdex 200 Increase 10/300 GL, 20 mM HEPES pH 7.5, 250 mM NaCl; Cas9/RNA, Csn2 and Cas1-Cas2 mixed; fractions analysed by SDS-PAGE (Coomassie); conditions: both partners purified

Binder | stoichiometry N [1] | stoichiometry N [2] | binding result [3]
B1 | 2 |  | 
B2 |  | 2 | 
B3 | 4 |  | binds
